Laboratory results from patent US20050124539A1 (Takeda / Millennium, published 2005).
No end group written: not given here. *: point of attachment. 125I = [125I]*

How the values were obtained:
[1] = biological target: T1, Human GPR7 (human, UniProt P48145 1-328); test: radioligand filter binding, membrane fraction of GPR7 expressing CHO cells
T1 construct: Full-length receptor expressed in CHO dhfr- cells; also called Human GPR7 receptor; GPR7 receptor
T1 sequence: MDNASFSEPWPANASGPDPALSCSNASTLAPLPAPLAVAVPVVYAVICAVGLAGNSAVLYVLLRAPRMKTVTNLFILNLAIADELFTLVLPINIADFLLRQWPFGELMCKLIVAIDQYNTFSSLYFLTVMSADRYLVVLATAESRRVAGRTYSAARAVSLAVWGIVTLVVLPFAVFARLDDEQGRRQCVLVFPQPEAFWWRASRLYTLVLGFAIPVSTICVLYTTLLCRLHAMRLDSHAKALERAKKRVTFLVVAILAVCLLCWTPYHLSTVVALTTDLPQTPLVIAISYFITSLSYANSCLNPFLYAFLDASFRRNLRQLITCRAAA
Description: (§1) Cell membrane fractions prepared from GPR7 expressing CHO cells and GPR8 expressing CHO cells, were diluted to various concentration with assay buffer (25 mM Tris-HCl, 5 mM EDTA, 0.05% CHAPS, 0.1% BSA, 0.5 mM PMSF, 1 μg/ml Pepstatin, 4 μg/ml E-64, 20 μg/ml Leupeptin, pH7.4), and 200 μl each of the diluent was dispensed into polypropilene test tube (Falcon 2053). In order to determine an amount of maximum binding, 2 μl of DMSO and 2 μl of 7 nM [Phe², ¹²⁵I-Tyr¹⁰]-Human GPR8 ligand (1-20) were added to the membrane fraction solution. Further, in order to determine a non-specific binding, 2 μl of 100 μM hGPR8L(1-23)/DMSO solution and 2 μl of 7 nM [Phe², ¹²⁵I-Tyr¹⁰]-Human GPR8 ligand (1-20) were added to the membrane fraction solution. The reaction was done at 25° C. for 75 minutes, and the reaction mixture was filtered by suction filtration using Whatman glassfilter (GF-F) treated with polyethyleneimine. After filtration, a radioactivity remaining on the filter was counted using γ-counter, and an amount of specific binding was estimated by subtracting an amount of non-specific binding from an amount of maximum binding. When the concentration of membrane fraction was changed, a specific binding of [Phe², ¹²⁵I-Tyr¹⁰]-Human GPR8 ligand (1-20) was perceived depending on the concentration of membrane fraction.
(§2) The IC₅₀ values were 0.13 nM and 0.039 nM, respectively. […]

[2] = biological target: T2, Human GPR8 receptor protein (human, UniProt P48146 1-333); test: radioligand filter binding, membrane fraction of GPR8 expressing CHO cells
T2 construct: Full-length receptor expressed in CHO dhfr- cells (CHO/GPR8)
Description: as §1, §2

[3] = biological target: T1, Human GPR7; test: cell-based or functional assay
[4] = biological target: T1, Human GPR7; test: cell-based or functional assay; remark: listed apart in the source
[5] = biological target: T2, Human GPR8 receptor protein; test: competition with [125I-Tyr10]-hGPR8L(1-23), membrane fraction of GPR8 expressing CHO cells
Description: Cell membrane fraction prepared from Human GPR8 expressing cells was diluted to various concentration with assay buffer (25 mM Tris-HCl, 5 mM EDTA, 0.05% CHAPS (3-[(3-Cholamidopropyl) Dimethyl-Ammonio]-1-Propanesulfonate), 0.1% BSA, 0.25 mM PMSF, 1 μg/ml Pepstatin, 20 μg/ml Leupeptin, pH7.4), and 200 μl each of the diluent was dispensed into polypropilene test tube (Falcon 2053). In order to determine an amount of maximum binding (TB), […] of DMSO and 2 μl of 7 nM [¹²⁵I-Tyr²]-hGPR8L(1-23) or [¹²⁵I-Tyr¹⁰]-hGPR8L(1-23) were added to the membrane fraction solution. Further, in order to determine a non-specific binding (NSB), 2 μt of 100 μM hGPR8L(1-23)/DMSO solution and 2 μl of 7 nM [¹²⁵I]-Tyr²]-hGPR8L(1-23) or [¹²⁵I-Tyr¹⁰]-hGPR8L(1-23) were added to the membrane fraction solution. The reaction was done at 25° C. for 60 minutes, and the reaction mixture was filtered by suction filtration using Whatman glassfilter (GF-F) treated with polyethyleneimine. After filtration, a radioactivity remaining on the filter was counted using γ-counter, and an amount of specific binding (SB) was estimated by subtracting an amount of non-specific binding from an amount of maximum binding. Since the specific binding in the case where [¹²⁵I-Tyr¹⁰]-hGPR8L(1-23) was used, was twice as much as that in the case where [¹²⁵1-Tyr²]-hGPR8L(1-23) was used, in practice, [¹²⁵I-Tyr¹⁰]-hGPR8L(1-23) was used in the assay. When the concentration of membrane fraction was changed, a specific binding of [¹²⁵I-Tyr¹⁰]-hGPR8L(1-23) was perceived depending on the concentration of membrane fraction.
A receptor binding activity of human- and porcine-homologue derivatives of GPR8 ligand peptide, wherein the synthesis method has been described in the specification, was measured using a membrane fraction of GPR8 expressing CHO cells and [¹²⁵-Tyr¹⁰]-hGPR8L(1-23) by the method described in Reference Example 43.

[6] = biological target: T3, TGR26, rat-derived G protein-coupled receptor protein (rat, UniProt Q56UD9 1-329); test: competition with [125I-Tyr10]-hGPR8L(1-23), membrane fraction of TGR26 expressing CHO cells, 3 µg/ml
T3 construct: Expressed in CHO dhfr- cells from pAK-rGPR7; also called rat TGR26; TGR26 receptor
T3 sequence: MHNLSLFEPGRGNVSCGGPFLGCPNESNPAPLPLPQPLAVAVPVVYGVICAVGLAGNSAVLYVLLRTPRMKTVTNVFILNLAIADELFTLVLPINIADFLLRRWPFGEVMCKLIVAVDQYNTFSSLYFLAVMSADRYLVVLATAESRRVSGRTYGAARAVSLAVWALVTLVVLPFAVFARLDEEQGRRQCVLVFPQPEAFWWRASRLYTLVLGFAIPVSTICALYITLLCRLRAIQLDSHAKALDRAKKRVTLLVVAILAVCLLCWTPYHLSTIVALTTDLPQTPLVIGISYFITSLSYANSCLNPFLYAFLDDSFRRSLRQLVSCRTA
Description: Cell membrane fraction prepared from TGR26 expressing cells was diluted to various concentration with assay buffer (25 mM Tris-HCl, 5 mM EDTA, 0.05% CHAPS (3-[(3-Cholamidopropyl) Dimethyl-Ammonio]-1-Propanesulfonate), 0.1% BSA, 0.5 mM PMSF, 1 μg/ml Pepstatin, 20 μg/ml Leupeptin, 4 μg/ml E-64, pH7.4), and 200 μl each of the diluent was dispensed into polypropilene test tube (Falcon 2053). In order to determine an amount of maximum binding, 2 μl of DMSO and 2 μl of 7 nM [¹²⁵-Tyr¹⁰]-hGPR8L(1-23) were added to the membrane fraction solution. Further, in order to determine a non-specific binding, 2 μl of 100 μM hGPR8L(1-23)/DMSO solution and 2 μl of 7 nM [¹²⁵I]-Tyr¹⁰]-hGPR8L(1-23) were added to the membrane fraction solution. The reaction was done at 25° C. for 75 minutes, and the reaction mixture was filtered by suction filtration using Whatman glassfilter (GF-F) treated with polyethyleneimine. In addition, the filter was washed twice with 1.5 ml of washing buffer (25 mM Tris-HCl, 5 mM EDTA, 0.05% CHAPS, 0.1% BSA, pH7.4). After filtration, a radioactivity remaining on the filter was counted using γ-counter, and an amount of specific binding was estimated by subtracting an amount of non-specific binding from an amount of maximum binding. […]

[7] = biological target: T1, Human GPR7; test: competition with [Phe2, 125I-Tyr10]-Human GPR8 ligand (1-20), membrane fraction of GPR7 expressing CHO cells, 15 µg/ml
Description: as §1, with “In” for “Cell membrane fractions prepared from GPR7 expressing CHO cells and GPR8 expressing CHO cells, were diluted to various concentration with assay buffer (25 mM Tris-HCl, 5 mM EDTA, 0.05% CHAPS, 0.1% BSA, 0.5 mM PMSF, 1 μg/ml Pepstatin, 4 μg/ml E-64, 20 μg/ml Leupeptin, pH7.4), and 200 μl each of the diluent was dispensed into polypropilene test tube (Falcon 2053). In”
The inhibition of binding for GPR7 receptor or GPR8 receptor in the test sample (the inhibition rate (%)) is represented by the ratio of the values obtained by subtracting a radioactivity (X) remaining on the filter in the case where the test sample and of [Phe², ¹²⁵I-Tyr¹⁰]-Human GPR8 ligand (1-20) were added from the maximum binding (TB) to the specific binding (SB) ((TB−X)/SB×100(%)).
as §2

T2 sequence (P48146 whole entry): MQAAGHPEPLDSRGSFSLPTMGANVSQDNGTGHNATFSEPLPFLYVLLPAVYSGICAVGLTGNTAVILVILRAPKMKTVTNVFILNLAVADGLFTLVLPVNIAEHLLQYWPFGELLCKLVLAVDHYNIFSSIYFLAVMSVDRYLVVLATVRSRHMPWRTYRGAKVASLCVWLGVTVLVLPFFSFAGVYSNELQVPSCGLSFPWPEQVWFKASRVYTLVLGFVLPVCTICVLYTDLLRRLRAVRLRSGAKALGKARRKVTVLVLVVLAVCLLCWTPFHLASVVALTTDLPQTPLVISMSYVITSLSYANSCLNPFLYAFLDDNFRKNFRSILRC

Binder | binding result [1] | binding result [2] | inhibition of intracellular cAMP production (IC50) [3] [nM] | Promoting activity to GTPγS binding (EC50 nM) [4] [nM] | IC50 [5] [nM] | IC50 [6] [nM] | IC50 [7] [nM]
WFKHVASPRY(125I)HTVGRAAGLL (Radioligand made from [Phe2]; also called labeled [Phe^2]; Human GPR8 ligand (1-20)) [[Phe^2, ^125I-Tyr^10]-Human GPR8 ligand (1-20)] | binds | binds | – | – | – | – | –
WYKHVASPRYHTVGRAAGLLMGL (also called hGPR8L(1-23); Human GPR8 ligand (1-23)) [human homologue of GPR8 ligand peptide consisting of 23 residues] | – | – | 0.025 | 0.74 | 0.25 | 0.12 | 0.13
